# Laboratory results reported in patent US20240350835A1 (AMBRX, published 2024).
# Target: prostate specific membrane antigen (PSMA) (UniProt Q04609 1-750, limits assumed)
# Assay: cell-based or functional assay
# Chain of prostate specific membrane antigen (PSMA) (Q04609 whole entry): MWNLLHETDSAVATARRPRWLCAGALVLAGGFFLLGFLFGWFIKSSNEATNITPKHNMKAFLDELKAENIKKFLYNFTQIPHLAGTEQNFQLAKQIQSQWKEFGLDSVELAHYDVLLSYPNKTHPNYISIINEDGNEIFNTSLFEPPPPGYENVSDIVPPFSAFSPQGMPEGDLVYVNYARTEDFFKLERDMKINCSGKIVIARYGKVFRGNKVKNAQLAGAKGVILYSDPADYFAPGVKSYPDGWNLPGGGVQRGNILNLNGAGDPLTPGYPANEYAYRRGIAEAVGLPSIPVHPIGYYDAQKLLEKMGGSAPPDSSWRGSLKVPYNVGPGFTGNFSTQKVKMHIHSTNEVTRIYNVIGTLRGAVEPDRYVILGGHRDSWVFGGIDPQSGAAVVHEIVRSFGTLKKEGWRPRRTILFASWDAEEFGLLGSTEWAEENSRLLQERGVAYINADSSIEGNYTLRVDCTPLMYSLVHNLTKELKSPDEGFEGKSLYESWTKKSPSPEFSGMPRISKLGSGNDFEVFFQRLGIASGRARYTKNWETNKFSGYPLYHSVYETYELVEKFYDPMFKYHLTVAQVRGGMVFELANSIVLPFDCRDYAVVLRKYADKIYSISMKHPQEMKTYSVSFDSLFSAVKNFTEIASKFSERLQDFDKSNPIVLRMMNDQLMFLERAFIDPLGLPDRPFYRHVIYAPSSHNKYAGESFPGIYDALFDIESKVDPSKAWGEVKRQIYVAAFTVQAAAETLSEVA
Binder,"Cell Killing (%), C4-2 cell line [%]","IC50 (nM), in vitro cell killing in C4-2 cell line (Cell Titer Glo, 96 h) [nM]"
"Chimeric Anti-PSMA Antibody ADC, MMAF payload, Non-Cleavable (PEG3) linker (antibody, human IgG1, kappa, V domains shown, para-acetyl phenylalanine (pAF) at position A114 (Kabat numbering; first residue of the heavy chain constant region), conjugated to non-cleavable (PEG3) MMAF drug-linker) VH: EVQLQQSGPELVKPGTSVRISCKTSGYTFTEYTIHWVKQSHGKSLEWIGNINPNNGGTTYNQKFEDKATLTVDKSSSTAYMELRSLTSEDSAVYYCAAGWNFDYWGQGTTLTVSS VL: DIVMTQSHKFMSTSVGDRVSIICKASQDVGTAVDWYQQKPGQSPKLLIYWASTRHTGVPDRFTGSGSGTDFTLTITNVQSEDLADYFCQQYNSYPLTFGAGTKVEIKR",89.5,0.295
"Chimeric Anti-PSMA Antibody ADC, MMAF payload, Short Cleavable (Valine-Citruline-Acetyl) linker (antibody, human IgG1, kappa, V domains shown, para-acetyl phenylalanine (pAF) at position A114 (Kabat numbering; first residue of the heavy chain constant region), conjugated to short cleavable (Valine-Citruline-Acetyl) MMAF drug-linker) VH: EVQLQQSGPELVKPGTSVRISCKTSGYTFTEYTIHWVKQSHGKSLEWIGNINPNNGGTTYNQKFEDKATLTVDKSSSTAYMELRSLTSEDSAVYYCAAGWNFDYWGQGTTLTVSS VL: DIVMTQSHKFMSTSVGDRVSIICKASQDVGTAVDWYQQKPGQSPKLLIYWASTRHTGVPDRFTGSGSGTDFTLTITNVQSEDLADYFCQQYNSYPLTFGAGTKVEIKR",94.5,0.049
"Chimeric Anti-PSMA Antibody ADC, MMAE payload, Short Cleavable (Valine-Citruline-Acetyl) linker (antibody, human IgG1, kappa, V domains shown, para-acetyl phenylalanine (pAF) at position A114 (Kabat numbering; first residue of the heavy chain constant region), conjugated to short cleavable (Valine-Citruline-Acetyl) MMAE drug-linker) VH: EVQLQQSGPELVKPGTSVRISCKTSGYTFTEYTIHWVKQSHGKSLEWIGNINPNNGGTTYNQKFEDKATLTVDKSSSTAYMELRSLTSEDSAVYYCAAGWNFDYWGQGTTLTVSS VL: DIVMTQSHKFMSTSVGDRVSIICKASQDVGTAVDWYQQKPGQSPKLLIYWASTRHTGVPDRFTGSGSGTDFTLTITNVQSEDLADYFCQQYNSYPLTFGAGTKVEIKR",82.5,0.425
"Chimeric Anti-PSMA Antibody ADC, MMAF payload, Cleavable (Val-Citruline-PEG1) linker (antibody, human IgG1, kappa, V domains shown, para-acetyl phenylalanine (pAF) at position A114 (Kabat numbering; first residue of the heavy chain constant region), conjugated to cleavable (Val-Citruline-PEG1) MMAF drug-linker) VH: EVQLQQSGPELVKPGTSVRISCKTSGYTFTEYTIHWVKQSHGKSLEWIGNINPNNGGTTYNQKFEDKATLTVDKSSSTAYMELRSLTSEDSAVYYCAAGWNFDYWGQGTTLTVSS VL: DIVMTQSHKFMSTSVGDRVSIICKASQDVGTAVDWYQQKPGQSPKLLIYWASTRHTGVPDRFTGSGSGTDFTLTITNVQSEDLADYFCQQYNSYPLTFGAGTKVEIKR",89.5,0.047
"Chimeric Anti-PSMA Antibody ADC, MMAE payload, Non-Cleavable (PEG3) linker (antibody, human IgG1, kappa, V domains shown, para-acetyl phenylalanine (pAF) at position A114 (Kabat numbering; first residue of the heavy chain constant region), conjugated to non-cleavable (PEG3) MMAE drug-linker) VH: EVQLQQSGPELVKPGTSVRISCKTSGYTFTEYTIHWVKQSHGKSLEWIGNINPNNGGTTYNQKFEDKATLTVDKSSSTAYMELRSLTSEDSAVYYCAAGWNFDYWGQGTTLTVSS VL: DIVMTQSHKFMSTSVGDRVSIICKASQDVGTAVDWYQQKPGQSPKLLIYWASTRHTGVPDRFTGSGSGTDFTLTITNVQSEDLADYFCQQYNSYPLTFGAGTKVEIKR",62.5,10.2
"Humanized Anti-PSMA Antibody Variant 1 ADC, MMAE payload, Non-Cleavable (PEG3) linker (antibody, human IgG1, kappa, V domains shown, para-acetyl phenylalanine (pAF) at position A114 (Kabat numbering; first residue of the heavy chain constant region), conjugated to non-cleavable (PEG3) MMAE drug-linker) VH: QVQLVQSGAEVKKPGASVKVSCKASGYTFTEYTIHWVRQAPGQRLEWMGNINPNNGGTTYNQKFEDRVTITRDTSASTAYMELSSLRSEDTAVYYCAAGWNFDYWGQGTTLTVSS VL: DIQLTQSPSFLSASVGDRVTITCKASQDVGTAVDWYQQKPGKAPKLLIYWASTRHTGVPSRFSGSGSGTEFTLTISSLQPEDFATYYCQQYNSYPLTFGGGTKVEIKR",64.5,11.3
"Humanized Anti-PSMA Antibody Variant 2 ADC, MMAF payload, Cleavable (Val-Citruline-PEG1) linker (antibody, human IgG1, kappa, V domains shown, para-acetyl phenylalanine (pAF) at position A114 (Kabat numbering; first residue of the heavy chain constant region), conjugated to cleavable (Val-Citruline-PEG1) MMAF drug-linker) VH: QVQLVQSGAEVKKPGASVKVSCKASGYTFTEYTIHWVRQAPGQRLEWMGNINPNNGGTTYNQKFEDRVTITRDTSASTAYMELSSLRSEDTAVYYCAAGWNFDYWGQGTTLTVSS VL: DIQLTQSPSFLSASVGDRVTITCKASQDVGTAVDWYQQKPGKAPKLLIYWASTRHTGVPSRFSGSGSGTEFTLTISSLQSEDFATYYCQQYNSYPLTFGGGTKVEIKR",91,0.051
"Humanized Anti-PSMA Antibody Variant 1 ADC, MMAF payload, Cleavable (Val-Citruline-PEG1) linker (antibody, human IgG1, kappa, V domains shown, para-acetyl phenylalanine (pAF) at position A114 (Kabat numbering; first residue of the heavy chain constant region), conjugated to cleavable (Val-Citruline-PEG1) MMAF drug-linker) VH: QVQLVQSGAEVKKPGASVKVSCKASGYTFTEYTIHWVRQAPGQRLEWMGNINPNNGGTTYNQKFEDRVTITRDTSASTAYMELSSLRSEDTAVYYCAAGWNFDYWGQGTTLTVSS VL: DIQLTQSPSFLSASVGDRVTITCKASQDVGTAVDWYQQKPGKAPKLLIYWASTRHTGVPSRFSGSGSGTEFTLTISSLQPEDFATYYCQQYNSYPLTFGGGTKVEIKR",91,0.066
"Humanized Anti-PSMA Antibody Variant 1 ADC, MMAF payload, Non-Cleavable (PEG3) linker (antibody, human IgG1, kappa, V domains shown, para-acetyl phenylalanine (pAF) at position A114 (Kabat numbering; first residue of the heavy chain constant region), conjugated to non-cleavable (PEG3) MMAF drug-linker) VH: QVQLVQSGAEVKKPGASVKVSCKASGYTFTEYTIHWVRQAPGQRLEWMGNINPNNGGTTYNQKFEDRVTITRDTSASTAYMELSSLRSEDTAVYYCAAGWNFDYWGQGTTLTVSS VL: DIQLTQSPSFLSASVGDRVTITCKASQDVGTAVDWYQQKPGKAPKLLIYWASTRHTGVPSRFSGSGSGTEFTLTISSLQPEDFATYYCQQYNSYPLTFGGGTKVEIKR",80.5,0.543
